Biological target: β-amyloid (Aβ) protein from brains of rTg9191 mice (human)
Test: SDS-PAGE and Western blot under denaturing conditions; water-soluble fraction of brain extracts (three-step protocol); samples heated at 95°C with SDS and β-mercaptoethanol, 10-20% Tris-Tricine gels, immunoblot for Aβ; mice of 4, 12, 21, 24 and 26 months

stoichiometry N: 2
Substance: β-amyloid (Aβ) protein from brains of rTg9191 mice (peptide)

From PMC4422728
